Data from patent publication US20090188009A1, “HEAT SHOCK RNA FROM VARIOUS SPECIES AND ITS USE IN ACTIVATION OF HEAT SHOCK TRANSCRIPTION FACTOR, IN TREATMENT OF VARIOUS DISEASES IN ANIMALS AND IN GENERATION OF STRESS-RESISTANT PLANTS” (New York University, published 2009).

Experiments:
[1] = target: purified recombinant mouse HSF1 (heat shock transcription factor 1), released from GST-HSF1 by thrombin cleavage (mouse) (UniProt P38532); assay: cell-based or functional assay
HSF1 = HSF1 (Mus musculus, UniProt P38532 P38532:1-525); assay: EMSA; trimeric HSF1 activated by eEF1A plus HSR1 (BHK, HeLa or T3 sense transcript); about 5% of HSF1 activated; 1.5 mM MgCl2, 2 mM DTT; conditions: tags: expressed as N-terminal GST fusion from pGex-2T in E. coli, thrombin cleaved; chain copies: 3; label: 32P end
Description: cDNAs of HSR1 were cloned from both HeLa and BHK cells (see Methods), and the coding strand was identified in a functional assay (FIG. 5A). As shown in the upper panel of FIG. 5A, the sense (T3) and antisense (T7) HSR1s were transcribed in vitro by T3 and T7 RNA polymerases, respectively, from PCR fragments carrying T3 or T7 promoters on each side of HSR1. The resulting synthetic RNAs were tested in the minimal HSF1 activating system (FIG. 5A, lower panel). For the reconstitution experiment shown in FIG. 5A, recombinant mouse HSF1 was used along with eEF1A purified from rat liver (as described above). HSR1 isolated from heat-shocked BHK or HeLa cells (lanes 7, 8) and HSR1-T3 (lane 10) activated HSF when added together with purified eEF1A. However, neither component alone was capable of activating HSF1 (lanes 2-6). The slight stimulating effect of isolated eEF1A (lane 2) on HSF1 activation results from the residual amount of co-purified HSR1, and could be eliminated by RNAse A treatment. In FIG. 5A, quantitation of HSF1 activation is presented as the fold increase relative to a background control. Under these conditions, about 5% of the total HSF1 was activated.

Sequence of purified recombinant mouse HSF1 (heat shock transcription factor 1), released from GST-HSF1 by thrombin cleavage (mouse) (P38532 other isoform, or with tags, fused parts or gaps limits assumed): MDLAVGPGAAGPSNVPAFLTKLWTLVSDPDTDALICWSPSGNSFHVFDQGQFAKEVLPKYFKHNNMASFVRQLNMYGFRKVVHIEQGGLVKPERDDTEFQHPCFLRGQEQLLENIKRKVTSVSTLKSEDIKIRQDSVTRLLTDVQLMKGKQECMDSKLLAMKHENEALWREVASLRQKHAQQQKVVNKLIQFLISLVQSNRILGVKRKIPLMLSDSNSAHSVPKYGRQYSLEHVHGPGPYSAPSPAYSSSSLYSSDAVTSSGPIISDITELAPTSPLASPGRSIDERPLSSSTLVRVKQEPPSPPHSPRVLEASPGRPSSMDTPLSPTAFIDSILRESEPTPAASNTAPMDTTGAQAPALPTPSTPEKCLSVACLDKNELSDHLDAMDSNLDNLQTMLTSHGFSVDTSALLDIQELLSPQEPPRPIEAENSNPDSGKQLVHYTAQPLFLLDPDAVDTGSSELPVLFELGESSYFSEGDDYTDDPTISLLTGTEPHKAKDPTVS
Sequence of HSF1 (P38532 whole entry, the tested form may be a part, one chain of several): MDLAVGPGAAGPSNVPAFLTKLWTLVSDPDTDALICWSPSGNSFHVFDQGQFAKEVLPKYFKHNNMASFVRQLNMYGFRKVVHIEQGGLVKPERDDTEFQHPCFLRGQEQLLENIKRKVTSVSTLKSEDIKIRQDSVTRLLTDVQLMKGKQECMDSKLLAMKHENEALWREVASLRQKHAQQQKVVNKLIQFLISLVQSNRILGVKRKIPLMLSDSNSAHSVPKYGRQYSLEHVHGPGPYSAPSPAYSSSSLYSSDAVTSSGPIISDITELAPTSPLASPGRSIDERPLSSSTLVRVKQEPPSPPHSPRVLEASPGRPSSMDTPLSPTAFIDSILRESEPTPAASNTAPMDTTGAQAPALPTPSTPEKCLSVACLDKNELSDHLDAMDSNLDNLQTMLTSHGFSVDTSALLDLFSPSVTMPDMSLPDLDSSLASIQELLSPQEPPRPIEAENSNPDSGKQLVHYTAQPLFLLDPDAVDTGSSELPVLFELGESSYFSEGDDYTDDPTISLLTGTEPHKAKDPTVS

| HSF1 activation (DNA binding to HSE, EMSA) in the reconstituted system [1] | Molecule | binding result (HSF1) |
| --- | --- | --- |
| 5% | eEF1A purified from rat liver (from UniProt P62630 2-462) |  |
|  | HSE oligonucleotide (dsDNA) DNA 1: GCCTCGAATGTTCGCGAAGTTTCG DNA 2: CGAAACTTCGCGAACATTCGAGGC | binds |
